The assay deals with microtubules (MTs) of porcine brain Tubulin (porcine) (UniProt P02550). In words: turbidimetry.

This note sets out measurements from PMC7321842.

Sequence of LEM2 N-terminal domain (LEM2NTD; AA:1–208) (Q8NC56 1-208): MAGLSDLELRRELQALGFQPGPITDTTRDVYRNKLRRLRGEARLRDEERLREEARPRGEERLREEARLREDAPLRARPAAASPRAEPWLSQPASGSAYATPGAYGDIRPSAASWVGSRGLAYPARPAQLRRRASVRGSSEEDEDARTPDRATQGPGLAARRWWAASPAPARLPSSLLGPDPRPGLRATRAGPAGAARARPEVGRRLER

Consider “LEM2 N-terminal domain (LEM2NTD; AA:1–208) (from UniProt Q8NC56 1-208) (domain or fragment)”, for which the K (apparent) (half-maximal concentration of MT bundling by light scattering) is 1.3 µM.
“LEM2_(Mim1(S82D, S90D, S96D, Y98D, T100D, Y104D)) (from UniProt Q8NC56 1-208) (domain or fragment)”: the half max (half-maximal concentration of MT bundling by light scattering) turned out to be 2.82 µM.
In turn, “LEM2_(Mim2(Y122D, S134D, S138D, S139D, T147D, S166D, S174D, S175D)) (from UniProt Q8NC56 1-208) (domain or fragment)” registered a half max (half-maximal concentration of MT bundling by light scattering) of 8.44 µM.
